# Assay results: patent US12428663B2, “Identification of DNA polymerase theta inactivation mechanism” (The Johns Hopkins University, priority 2018, dated 2025)
# Tested on: primer-template complex 5
# Experiment: Steady-state kinetic analysis of dA incorporation in 5 by Pol θ variants (polymerase activity)
# Type: biochemical
# Conditions: dA incorporation in 5, 25° C.
# Description: 1.4.3. Steady-state kinetic analysis of dA incorporation in 5 by Pol θ. Polymerase reactions were conducted with Pol θ (432 pM for wild type Pol θ and 5 nM for K2383A and K2383R), 5′-^32P-5 (50 nM), and a range of dATP concentrations (0.25 μM-100 μM for wild type and 62.5-5000 μM for mutants) at 25° C. in reaction buffer (10 mM Tris HCl pH 8, 25 mM KCl, 10 mM MgCl2, 1 mM BME). The concentration range for dATP and the reaction time were selected so that reactions proceeded no further than 25% (single-hit conditions). In a typical experiment, a 2×DNApolymerase solution was prepared by mixing 5′-^32P-5 (500 nM, 18 μL), 10×reaction buffer (18 μL), 10×Pol θ (4.32 nM for wild type or 50 nM for mutants, 18 μL) in storage buffer (20 mM Tris HCl pH 7, 300 mM NaCl, 10% glycerol, 5 mM BME), and H2O (36 μL). The 2×DNAenzyme solution (3 μL) was mixed with the appropriate 2×dNTP solution (3 μL) to initiate the reaction. Reactions were incubated for 20 s for wild type Pol θ, 1.5 min for K2383R, and 4 min for K2383A, after which, they were quenched with 95% formamide loading buffer containing 25 mM EDTA (6 μL). An aliquot (4 μL) was analyzed by 20% denaturing PAGE run at 55 W for approximately 3.5 h. The gel was analyzed by phosphorimaging, and the data were fit to the Michaelis-Menten equation. The kcat was determined by dividing Vmax by the active concentration of enzyme. […]
molecule,measurement,value
"wt28: wild type Pol θ catalytic core (residues 1792-2590) (protein, UniProt O75417 1792-2590, looked up, fragment, catalytic core) GFKDNSPISDTSFSLQLSQDGLQLTPASSSSESLSIIDVASDQNLFQTFIKEWRCKKRFSISLACEKIRSLTSSKTATIGSRFKQASSPQEIPIRDDGFPIKGCDDTLVVGLAVCWGGRDAYYFSLQKEQKHSEISASLVPPSLDPSLTLKDRMWYLQSCLRKESDKECSVVIYDFIQSYKILLLSCGISLEQSYEDPKVACWLLDPDSQEPTLHSIVTSFLPHELPLLEGMETSQGIQSLGLNAGSEHSGRYRASVESILIFNSMNQLNSLLQKENLQDVFRKVEMPSQYCLALLELNGIGFSTAECESQKHIMQAKLDAIETQAYQLAGHSFSFTSSDDIAEVLFLELKLPPNREMKNQGSKKTLGSTRRGIDNGRKLRLGRQFSTSKDVLNKLKALHPLPGLILEWRRITNAITKVVFPLQREKCLNPFLGMERIYPVSQSHTATGRITFTEPNIQNVPRDFEIKMPTLVGESPPSQAVGKGLLPMGRGKYKKGFSVNPRCQAQMEERAADRGMPFSISMRHAFVPFPGGSILAADYSQLELRILAHLSHDRRLIQVLNTGADVFRSIAAEWKMIEPESVGDDLRQQAKQICYGIIYGMGAKSLGEQMGIKENDAACYIDSFKSRYTGINQFMTETVKNCKRDGFVQTILGRRRYLPGIKDNNPYRKAHAERQAINTIVQGSAADIVKIATVNIQKQLETFHSTFKSHGHREGMLQSDQTGLSRKRKLQGMFCPIRGGFFILQLHDELLYEVAEEDVVQVAQIVKNEMESAVKLSVKLKVKVKIGASWGELKDFDV",Km,5 ± 1 µM
same,kcat,1.08 ± 0.2 s⁻¹
